Target: Recombinant SARS-CoV-2 spike protein (SARS-CoV-2) (UniProt P0DTC2)
Assay: ELISA

Native human surfactant protein A (from UniProt Q8IWL2 21-248) (natural protein)
percent decrease of binding in 10 mM EDTA: 46%

From article doi:10.1101/2023.04.03.535215
